Experimental data from patent US6849712B1, “Peptides with β1 integrin subunit dependent cell adhesion modulating activity” (Regents of the University of Minnesota, priority 1998, dated 2005).
Entries after “also recorded” stand apart in the source; their conditions may differ. Where no end group is shown, it is not given here. [ ]: non-standard residue; d: D form.

Assays:
α5β1 integrin [1] = target: T1, α5β1 integrin (Homo sapiens, UniProt P05556+P08648); assay: Inhibition of α5β1 integrin dependent Mn+2 stimulated adhesion of K562 cells to fibronectin (FN); type: cell-based; conditions: for inhibition of K562 adhesion to FN at the maximal concentration tested: 0.84 mM peptide, K562 cells stimulated with 1 mM MnCl2
T1 construct: erythroleukemic cell line K562, which expresses α5β1 but not α4β1 integrin; endogenous in cells; host or cells: K562 cells
Procedure: The cell adhesion assay was carried out as described above. […] Each data point represents the mean of triplicate determinations and the error bars represent the standard deviation of the mean. The solid black line represents adhesion to the negative control substrate, BSA.

α4β1 integrin = α4β1 integrin (Homo sapiens, UniProt P05556+P13612); assay: Inhibition of α4β1 dependent adhesion of 8A2 stimulated Ramos cells to IIICS-GST; type: cell-based; set-up: endogenous in cells; host or cells: Ramos cells; conditions: Ramos cells activated with mAb 8A2, preincubated with peptide, result in words
Excerpt: IIICS-GST is recombinantly produced fusion protein which contains a fragment from the type III CS region (“IIICS”) of plasma fibronectin fused to glutathione-S-transferase (“GST”). The fibronectin fragment corresponds to fibronectin amino acid residues 1961 to 2039 (sequence numbering for fibronectin as designated in U.S. Pat. No. 4,839,464) and includes the […] (SEQ ID NO:46) amino acid sequence (“CS1”; fibronectin residues 1961-1985). […] In the assay, a 96-well plate was coated with the substrate IIICS-GST. Ramos cells stimulated with the β1 activating monoclonal antibody 8A2 (“Ab 8A2”) were preincubated with one of the peptides to be evaluated for their ability to adhere to IIICS-GST.
The fusion protein can be constructed by first using PCR primers to amplify the coding sequence for residues 1961-2039 of plama fibronectin. The PCR product can be introduced into a suitable bacterial expression vector in frame with the gene for GST. The resulting vector can be transformed and expressed in a suitable host cell, such as E Coli, to produce the fusion protein. If desired, the fusion protein can be purified using a glutathione column.
A 96-well plate was coated in triplicate with […] of IIICS-GST diluted to […] in PBS containing 1 mM CaCl2, MgCl2 (“PBS/cations”) and incubated overnight at 37° C. The IIICS-GST solution was removed and the wells were blocked with 150 μ/well of PBS/cations containing 0.3% BSA for 1-2 hours at 37° C. During the assay each well contained 100 μl of Ramos cells (10,000 cells/well) with or without peptide. Ramos cells were washed 3 times in adhesion media (DMEM without phenol red containing 20 mM HEPES and 3 mg/ml BSA). Cells were counted and resuspended at 200,000 cells/ml. Concentrated Ramos cells were labeled for 20 minutes at 37° C. with 50 μg of the fluorescent label BCECF resuspended in 30 μl of dimethylsulfoxide (“DMSO”). The labeled cells were centrifuged and resuspended in adhesion media at a concentration of 200,000 cells/ml. The cells were activated with the activating Ab 8A2 at a concentration of 2 μg/ml purified IgG or 1:1000 culture supernatant.
While the cells were being labeled, inhibiting peptide dilutions were prepared. Lyophilized peptides were weighed and resuspended in adhesion media at a stock concentration of twice the maximal inhibitory concentration. If a peptide was difficult to get into solution, it was initially resuspended in 30 μl of DMSO. If a peptide needed to be suspended in DMSO, all of the eptides in that particular experiment (including the controls) were suspended in 30 μl of DMSO. […] The dose-dependent dilutions of peptides were prepared using adhesion media to dilute the stock peptide. Labeled cells were mixed with peptide dilutions for 5 minutes at 37° C. at a final concentration of 100,000 cells/ml and appropriate final peptide concentrations.
The blocking solution was removed from the 96-well plate and the cell/peptide mixture is added at 100 μl/well (10,000 cells/well) and incubated for 30 minutes at 37° C. An aliquot of standard cells/peptide (100 μl) was placed at 37° C. for quantitating adhesion. Using aspiration, non-adherent cells were removed from the plate. The standard cells were centrifuged and resuspended in […] of adhesion media. The standard cells were added to empty wells at 100, 80, 60, 40, 20 and 0 μl /well representing 100%, 80%, 60%, 40%, 20% and 0% adhesion, respectively. The plate fluorescence was read at excitation 485 and emission 530. Cell adhesion was represented as percent input cells remaining adherent and was determined by a standard curve of the fluorescence obtained with the standard cells. The experimental fluorescence readings were extrapolated from the standard curve to obtain percent adhesion.

[2] = in vivo rat model, reported; cited from earlier work
[3] = system: peripheral blood mononuclear cells and spleen cells; conditions: reported, Wahl et al.; cited from earlier work
α2β1 and α3β1 integrin = assay: Inhibition of α2β1, α3β1 integrin dependent human melanoma M14#5 cell adhesion to laminin and type IV collagen; type: cell-based; conditions: 0.5 mg/ml peptide (0.42 mM), 30 minutes
Procedure: An experiment was conducted to examine the ability of FN-C/H V+Y (SEQ ID NO:1) to inhibit α2β1, α3β1 integrin dependent cell adhesion using an assay based on human melanoma cells (M14#5).
Laminin, type IV collagen and BSA were coated overnight in a 96 well microtiter plate at 10 μg/ml and blocked with 0.3% BSA. M14#5 cells were preincubated with 0.5 mg/ml of peptide (equivalent to 0.42 mM FN-C/H V and scrambled FN-C/H V and 0.17 mM CSI) and allowed to adhere to substrates for 30 minutes.

α5β1 integrin [4] = target: α5β1 integrin (UniProt P08648 42-1049; P05556 21-798); assay: cell-based or functional assay
Sequence of α5β1 integrin (UniProt P08648 42-1049; P05556 21-798) (P08648 42-1049, chain 1 of 2): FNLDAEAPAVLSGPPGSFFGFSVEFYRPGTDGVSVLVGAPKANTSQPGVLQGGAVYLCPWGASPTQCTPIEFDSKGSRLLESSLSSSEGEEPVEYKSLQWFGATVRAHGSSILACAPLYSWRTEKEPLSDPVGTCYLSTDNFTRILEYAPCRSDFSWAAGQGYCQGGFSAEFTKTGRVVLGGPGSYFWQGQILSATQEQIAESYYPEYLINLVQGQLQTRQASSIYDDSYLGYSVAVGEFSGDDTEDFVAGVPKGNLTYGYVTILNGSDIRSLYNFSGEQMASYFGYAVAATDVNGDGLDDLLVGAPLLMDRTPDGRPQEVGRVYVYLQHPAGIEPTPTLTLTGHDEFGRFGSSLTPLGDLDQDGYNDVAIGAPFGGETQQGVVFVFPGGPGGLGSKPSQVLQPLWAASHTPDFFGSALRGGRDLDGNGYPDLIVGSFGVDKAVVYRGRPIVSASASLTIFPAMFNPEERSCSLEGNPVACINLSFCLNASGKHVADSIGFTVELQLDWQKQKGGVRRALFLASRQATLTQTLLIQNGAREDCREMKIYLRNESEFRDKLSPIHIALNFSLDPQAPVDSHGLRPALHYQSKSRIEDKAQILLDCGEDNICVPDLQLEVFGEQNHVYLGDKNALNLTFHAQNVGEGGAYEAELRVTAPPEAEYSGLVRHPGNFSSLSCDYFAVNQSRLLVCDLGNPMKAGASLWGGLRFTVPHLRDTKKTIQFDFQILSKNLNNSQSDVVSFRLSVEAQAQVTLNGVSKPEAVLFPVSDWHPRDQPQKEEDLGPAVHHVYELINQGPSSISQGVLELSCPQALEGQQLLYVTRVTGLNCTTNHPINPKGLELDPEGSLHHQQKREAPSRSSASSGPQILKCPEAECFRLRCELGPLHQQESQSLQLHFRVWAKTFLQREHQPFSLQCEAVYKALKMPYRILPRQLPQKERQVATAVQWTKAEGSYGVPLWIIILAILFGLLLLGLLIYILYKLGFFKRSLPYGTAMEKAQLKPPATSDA
Sequence of α5β1 integrin (UniProt P08648 42-1049; P05556 21-798) (P05556 21-798, chain 2 of 2): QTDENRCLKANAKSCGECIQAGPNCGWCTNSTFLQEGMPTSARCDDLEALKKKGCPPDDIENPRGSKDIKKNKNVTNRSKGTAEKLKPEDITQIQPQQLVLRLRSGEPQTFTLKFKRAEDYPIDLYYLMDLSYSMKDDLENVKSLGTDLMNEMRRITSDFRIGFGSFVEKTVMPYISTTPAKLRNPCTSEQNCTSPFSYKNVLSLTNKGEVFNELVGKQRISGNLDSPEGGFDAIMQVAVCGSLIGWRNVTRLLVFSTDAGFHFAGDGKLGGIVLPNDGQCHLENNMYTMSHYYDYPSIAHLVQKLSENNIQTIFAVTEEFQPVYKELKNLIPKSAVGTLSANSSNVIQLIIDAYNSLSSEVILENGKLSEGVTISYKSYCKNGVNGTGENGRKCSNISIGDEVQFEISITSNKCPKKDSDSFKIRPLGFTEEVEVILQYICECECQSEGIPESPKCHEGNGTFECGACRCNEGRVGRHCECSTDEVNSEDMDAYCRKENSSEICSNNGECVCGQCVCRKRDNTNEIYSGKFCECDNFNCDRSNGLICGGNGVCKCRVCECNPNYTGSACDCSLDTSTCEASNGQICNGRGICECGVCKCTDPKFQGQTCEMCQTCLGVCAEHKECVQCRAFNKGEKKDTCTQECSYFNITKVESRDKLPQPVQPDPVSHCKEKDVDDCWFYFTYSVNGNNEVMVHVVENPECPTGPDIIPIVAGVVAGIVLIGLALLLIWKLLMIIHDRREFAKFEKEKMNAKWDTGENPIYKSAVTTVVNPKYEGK

Sequence of α4β1 integrin (P13612 34-1032): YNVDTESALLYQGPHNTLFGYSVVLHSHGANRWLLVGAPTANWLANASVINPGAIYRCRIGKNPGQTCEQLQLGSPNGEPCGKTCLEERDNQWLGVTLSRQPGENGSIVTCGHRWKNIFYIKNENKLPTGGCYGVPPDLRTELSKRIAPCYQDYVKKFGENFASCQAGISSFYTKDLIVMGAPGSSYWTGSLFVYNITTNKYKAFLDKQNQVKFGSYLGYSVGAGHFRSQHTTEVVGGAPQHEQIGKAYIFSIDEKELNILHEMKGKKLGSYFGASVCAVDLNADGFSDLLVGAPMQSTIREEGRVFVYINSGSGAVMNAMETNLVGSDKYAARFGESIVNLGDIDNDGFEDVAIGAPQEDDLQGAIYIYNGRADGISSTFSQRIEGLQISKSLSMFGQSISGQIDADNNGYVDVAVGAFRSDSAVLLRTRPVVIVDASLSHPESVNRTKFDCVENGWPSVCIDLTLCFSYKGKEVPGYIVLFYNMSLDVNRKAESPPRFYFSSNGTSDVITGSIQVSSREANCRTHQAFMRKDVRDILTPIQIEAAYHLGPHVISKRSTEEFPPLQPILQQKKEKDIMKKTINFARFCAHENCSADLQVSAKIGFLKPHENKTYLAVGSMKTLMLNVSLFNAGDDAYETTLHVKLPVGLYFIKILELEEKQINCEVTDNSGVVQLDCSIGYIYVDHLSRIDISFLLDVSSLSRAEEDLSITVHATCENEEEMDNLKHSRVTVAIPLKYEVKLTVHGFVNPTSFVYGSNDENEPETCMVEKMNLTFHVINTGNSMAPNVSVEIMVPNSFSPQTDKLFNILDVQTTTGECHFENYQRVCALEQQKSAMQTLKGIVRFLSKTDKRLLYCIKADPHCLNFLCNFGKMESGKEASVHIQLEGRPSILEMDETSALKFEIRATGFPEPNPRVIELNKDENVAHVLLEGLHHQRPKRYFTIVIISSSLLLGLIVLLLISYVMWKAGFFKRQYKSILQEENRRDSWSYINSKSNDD
Sequence of α4β1 integrin (P05556 21-798): as the sequence (P05556 21-798, chain 2 of 2) above
T1 sequence (P08648 42-894 limits assumed): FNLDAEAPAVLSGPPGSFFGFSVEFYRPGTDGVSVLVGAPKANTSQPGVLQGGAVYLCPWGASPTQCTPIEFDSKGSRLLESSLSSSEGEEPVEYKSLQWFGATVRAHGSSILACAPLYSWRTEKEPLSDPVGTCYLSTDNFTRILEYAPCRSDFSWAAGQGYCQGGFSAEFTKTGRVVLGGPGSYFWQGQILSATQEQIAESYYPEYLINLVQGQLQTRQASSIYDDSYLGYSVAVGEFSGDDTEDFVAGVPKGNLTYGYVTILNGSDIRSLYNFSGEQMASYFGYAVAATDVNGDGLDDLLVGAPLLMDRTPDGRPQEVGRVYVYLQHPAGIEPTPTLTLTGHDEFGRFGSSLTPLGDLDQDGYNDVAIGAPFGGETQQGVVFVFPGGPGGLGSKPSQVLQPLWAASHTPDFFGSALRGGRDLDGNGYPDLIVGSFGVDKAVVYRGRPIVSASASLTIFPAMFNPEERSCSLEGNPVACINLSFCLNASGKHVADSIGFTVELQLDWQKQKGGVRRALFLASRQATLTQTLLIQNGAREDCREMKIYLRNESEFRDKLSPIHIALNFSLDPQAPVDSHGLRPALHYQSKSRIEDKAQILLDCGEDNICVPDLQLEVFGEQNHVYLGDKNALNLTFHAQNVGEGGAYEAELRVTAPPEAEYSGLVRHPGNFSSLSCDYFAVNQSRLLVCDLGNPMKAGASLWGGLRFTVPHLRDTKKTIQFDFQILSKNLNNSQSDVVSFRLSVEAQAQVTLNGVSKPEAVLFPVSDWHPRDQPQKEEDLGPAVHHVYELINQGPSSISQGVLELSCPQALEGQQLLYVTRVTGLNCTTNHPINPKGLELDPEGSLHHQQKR
T1 sequence (P08648 895-1049 limits assumed): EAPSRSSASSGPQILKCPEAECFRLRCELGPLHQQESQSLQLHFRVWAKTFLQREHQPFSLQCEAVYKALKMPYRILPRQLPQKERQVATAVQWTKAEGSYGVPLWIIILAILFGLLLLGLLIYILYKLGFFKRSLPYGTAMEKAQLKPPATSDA
T1 sequence (P05556 21-798): as the sequence (P05556 21-798, chain 2 of 2) above

Molecule | inhibition of adhesion of 8A2 stimulated Ramos cells to IIICS-GST (α4β1 integrin) | also measured
N=C(N)NCCC[C@H](N)C(=O)NCC(=O)N[C@@H](CC(=O)O)C(=O)O [RGD, reference compound] | – | inhibition of K562 adhesion to FN at the maximal concentration tested (α5β1 integrin [1]): completely inhibited
AQPPRARIY (listed as Homo sapiens) [SEQ ID NO:3] | capable of inhibiting β1 integrin dependent cell adhesion | –
ARITGYIIY (listed as Homo sapiens) [SEQ ID NO:14] | exhibit the capability of inhibiting β1 integrin subunit dependent adhesion; also recorded: most active peptide; also recorded: inhibited cell adhesion | –
ARIY (listed as Homo sapiens) [SEQ ID NO:26] | comparable on an equimolar basis to that of Y-tagged FN C/H V | –
IYWQPPRAR (listed as Homo sapiens) [SEQ ID NO:34] | inactive | –
KNNQKSEPLIGR-KKTY (KNNQKSEPLIGRKKTY; listed as Homo sapiens) [FN-C/H II+Y] | – | anti-inflammatory properties [2]: exhibit anti-inflammatory properties; inhibition of leukocyte adhesion to fibronectin in vitro [3]: inhibit leukocyte adhesion to fibronectin in vitro
PPRARIY (listed as Homo sapiens) [SEQ ID NO:23] | also exhibited α4β1 integrin dependent cell adhesion inhibition activity | –
PRARI (listed as Homo sapiens) [SEQ ID NO:39] | not PRARI was able to inhibit | –
PRARIY-OH [SEQ ID NO:24, PRARIY] | comparable on an equimolar basis to that of the 9 residue peptide, Y-tagged FN C/H V; also recorded: able to inhibit | inhibition of K562 adhesion to FN at the maximal concentration tested (α5β1 integrin [1]): completely inhibited; IC50 (α5β1 integrin [1]; K562 cells stimulated with 1 mM MnCl2, adhesion to FN, read-out: half-maximal inhibitory concentration): ~200 µM
PRQAWRPIY (listed as Homo sapiens) [SEQ ID NO:18] | exhibit the capability of inhibiting β1 integrin subunit dependent adhesion; also recorded: inhibited cell adhesion | –
QPPRARIY (listed as Homo sapiens) [SEQ ID NO:22] | also exhibited α4β1 integrin dependent cell adhesion inhibition activity | –
RARITGYIY (listed as Homo sapiens) [SEQ ID NO:13] | exhibit the capability of inhibiting β1 integrin subunit dependent adhesion; also recorded: exhibited α4β1 integrin dependent cell adhesion inhibition | –
RARIY (listed as Homo sapiens) [SEQ ID NO:25] | comparable on an equimolar basis to that of the 9 residue peptide, Y-tagged FN C/H V | –
RPAPQRWIY (listed as Homo sapiens) [SEQ ID NO:20] | exhibit the capability of inhibiting β1 integrin subunit dependent adhesion; also recorded: inhibited cell adhesion | –
RPQIPWARY (listed as Homo sapiens) [SEQ ID NO:2] | did not inhibit cell adhesion | inhibition of M14#5 cell adhesion to laminin (α2β1 and α3β1 integrin; laminin coated substrate): has no effect; inhibition of M14#5 cell adhesion to type IV collagen (α2β1 and α3β1 integrin; type IV collagen coated substrate): has no effect
SPPRRARVTY (listed as Homo sapiens) [FN-C/H IV+Y] | – | inhibition of leukocyte adhesion to fibronectin in vitro [3]: inhibit leukocyte adhesion to fibronectin in vitro

Molecule | inhibition of adhesion of 8A2 stimulated Ramos cells to IIICS-GST (α4β1 integrin) | also measured
WAPPRARIY (listed as Homo sapiens) [SEQ ID NO:4] | capable of inhibiting β1 integrin dependent cell adhesion | –
WQPIYPRAR (listed as Homo sapiens) [SEQ ID NO:35] | inactive | –
WQPPAARIY (listed as Homo sapiens) [SEQ ID NO:7] | capable of inhibiting β1 integrin dependent cell adhesion | –
WQPPDADIY (listed as Homo sapiens) [SEQ ID NO:38] | inhibits the 8A2 stimulated adhesion of Ramos cells at least as strongly as FN-C/H V+Y; also recorded: does not alter the ability of the peptide to inhibit β1 integrin subunit dependent adhesion | –
WQPPRAAIY (listed as Homo sapiens) [SEQ ID NO:8] | capable of inhibiting β1 integrin dependent cell adhesion | –
WQPPRARI (listed as Homo sapiens) [SEQ ID NO:37, reference compound] | also inactive | –
WQPPRARIF (listed as Homo sapiens) [SEQ ID NO:32] | comparable to that of FN C/H V+Y | –
WQPPRARIW (listed as Homo sapiens) [SEQ ID NO:33] | comparable to that of FN C/H V+Y | –
WQPPRARLY (listed as Homo sapiens) [SEQ ID NO:28] | comparable to that of FN C/H V+Y | –
WQPPRARVY (listed as Homo sapiens) [SEQ ID NO:29] | comparable to that of FN C/H V+Y | –
WQPPRARYI (listed as Homo sapiens) [SEQ ID NO:36] | inactive | –
YIRARPPQW (not fully specified (some residues); listed as Homo sapiens) [SEQ ID NO:40] | – | inhibition of adhesion of 8A2 stimulated Ramos cells to IIICS-GST (α4β1 integrin; listed as retro inverso FN-C/H V+Y): Neither of these two compounds inhibited Ramos cell binding; inhibition of adhesion of 8A2 stimulated Ramos cells to IIICS-GST (α4β1 integrin; listed as retro-inverso FN-C/H V−Y): unable to inhibit adhesion
all D-form of FN-C/H V+Y: all D-form of FN-C/H V+Y (SEQ ID NO:1) ([dW][dQ][dP][dP][dR][dA][dR][dI][dY]; listed as Homo sapiens) | Neither of these two compounds inhibited Ramos cell binding | inhibition of adhesion of 8A2 stimulated Ramos cells to IIICS-GST (α4β1 integrin; listed as D-amino acid FN-C/H V−Y): unable to inhibit adhesion
RIY | – | half-maximal inhibitory concentration (K562 adhesion to FN) (α5β1 integrin [4]): ~0.2 mM
WQPPRARIY [FN-C/H V+Y] | – | half-maximal inhibitory concentration (K562 adhesion to FN) (α5β1 integrin [4]): 0.2 mM
PRARIY | – | half-maximal inhibitory concentration (K562 adhesion to FN) (α5β1 integrin [4]): ~0.2 mM
